K (app,fr) (apparent rate of polymerization) data for one substance are collected here from PMC3691886.

In assay [1] the target is α1-antitrypsin reactive loop mutant P14P12 (T345D, A347D) on the C232S background (UniProt P01009). The assay is described as follows: FRET or BRET; heat-induced polymerization at 50°C; 0.1 mg/ml protein in 10 mM Na2HPO4/NaH2PO4, 0.1 M NaCl, 0.1% PEG8K, pH 7.4; 2-8 μM ATTO-550-Ni-NTA and ATTO-647N-Ni-NTA on the His tag; apparent rate, corrected to zero dye; monomer to polymer. For orientation: BRET reads energy transfer from a luciferase to a nearby fluorophore.

The target is the same in assay [2]. The assay is described as follows: FRET or BRET; heat-induced polymerization at 55°C; 0.1 mg/ml protein in 10 mM Na2HPO4/NaH2PO4, 0.1 M NaCl, 0.1% PEG8K, pH 7.4; 2-8 μM ATTO-550-Ni-NTA and ATTO-647N-Ni-NTA on the His tag; apparent rate, corrected to zero dye; monomer to polymer.
Assay [3] has the same target. Nature of the assay: FRET or BRET; heat-induced polymerization at 60°C; 0.1 mg/ml protein in 10 mM Na2HPO4/NaH2PO4, 0.1 M NaCl, 0.1% PEG8K, pH 7.4; 2-8 μM ATTO-550-Ni-NTA and ATTO-647N-Ni-NTA on the His tag; apparent rate, corrected to zero dye; monomer to polymer.

In the case of “α1-antitrypsin reactive loop mutant P14P12 (T345D, A347D) on the C232S background (from UniProt P01009 26-418) (natural protein)”, the k (app,fr) (apparent rate of polymerization) in assay [1] came to 5.8e-05 s⁻¹; in assay [2], 0.00043 s⁻¹; in assay [3], 0.024 s⁻¹.
